Test results: PMC9915066

Biological target: SpyTag-fused glucose dehydrogenase V149C/G190C (Streptococcus pyogenes | Aspergillus flavus)

Substance: CYTc-SpyCatcher
- Imax^app (nA): direct electron transfer current of the complex-immobilized gold electrode on successive glucose addition, chronoamperometry at +400 mV vs. Ag/AgCl; ST-GDH alone hardly gave a response: 55 nA
